Test results from paper PMC13397619.

B1: NLV2 TCR alpha chain (CDR3α only) (parent)
chain: AGPMKTSYDKVI
partner: MLVPMVATV

Variants of: B1
Assay: T-Switch: Jurkat TCRβ−/− cells expressing a CDR3 saturation-mutagenesis library, stained with two peptide-HLA-A*02:01 tetramers (original and novel peptide) plus anti-CD3, FACS-sorted into four gates, gDNA sequenced
Settings: with HLA-A*02:01 with peptide … (NLV 3-1, the novel peptide), tetramers 1 µg/mL, 30 min on ice, SP, DP and SW gates expanded about 10 days between rounds ('two to three rounds of selection' in the Methods), gate SW: higher = more of the variant in the gate that binds the novel peptide and not the original one = switched binding. Fold enrichment of the CDR3 variant in one FACS gate of a two-tetramer stain, unresolved parent, parent is a CDR3 fragment, scale: fold enrichment, numbering: sequential-on-construct, sequence starts at 1

| Variant | enrichment |
| --- | --- |
| […] (CDR3 as printed); S7H derived by comparing it with the table's wild-type CDR3 AGPMKTSYDKVI | 0 |
| […] (CDR3 as printed); V11N derived by comparing it with the table's wild-type CDR3 AGPMKTSYDKVI | 0 |
| […] (CDR3 as printed); S7T derived by comparing it with the table's wild-type CDR3 AGPMKTSYDKVI | 0 |
| […] (CDR3 as printed); T6W derived by comparing it with the table's wild-type CDR3 AGPMKTSYDKVI | 0 |
| […] (CDR3 as printed); V11R derived by comparing it with the table's wild-type CDR3 AGPMKTSYDKVI | 0 |
| […] (CDR3 as printed); G2R derived by comparing it with the table's wild-type CDR3 AGPMKTSYDKVI | 0 |
| […] (CDR3 as printed); I12R derived by comparing it with the table's wild-type CDR3 AGPMKTSYDKVI | 0 |
| […] (CDR3 as printed); S7V derived by comparing it with the table's wild-type CDR3 AGPMKTSYDKVI | 0 |
| […] (CDR3 as printed); V11F derived by comparing it with the table's wild-type CDR3 AGPMKTSYDKVI | 0 |
| […] (CDR3 as printed); K5G derived by comparing it with the table's wild-type CDR3 AGPMKTSYDKVI | 0 |
| […] (CDR3 as printed); D9Y derived by comparing it with the table's wild-type CDR3 AGPMKTSYDKVI | 0 |
| […] (CDR3 as printed); I12V derived by comparing it with the table's wild-type CDR3 AGPMKTSYDKVI | 0 |
| […] (CDR3 as printed); K10H derived by comparing it with the table's wild-type CDR3 AGPMKTSYDKVI | 0 |
| […] (CDR3 as printed); G2V derived by comparing it with the table's wild-type CDR3 AGPMKTSYDKVI | 0 |
| […] (CDR3 as printed); K10R derived by comparing it with the table's wild-type CDR3 AGPMKTSYDKVI | 0 |
| […] (CDR3 as printed); P3H derived by comparing it with the table's wild-type CDR3 AGPMKTSYDKVI | 0 |
| […] (CDR3 as printed); T6V derived by comparing it with the table's wild-type CDR3 AGPMKTSYDKVI | 0 |
| […] (CDR3 as printed); K10A derived by comparing it with the table's wild-type CDR3 AGPMKTSYDKVI | 0 |
| […] (CDR3 as printed); K5C derived by comparing it with the table's wild-type CDR3 AGPMKTSYDKVI | 0 |
| […] (CDR3 as printed); T6R derived by comparing it with the table's wild-type CDR3 AGPMKTSYDKVI | 0 |
| […] (CDR3 as printed); K5Q derived by comparing it with the table's wild-type CDR3 AGPMKTSYDKVI | 0 |
| […] (CDR3 as printed); T6A derived by comparing it with the table's wild-type CDR3 AGPMKTSYDKVI | 0 |
| […] (CDR3 as printed); S7F derived by comparing it with the table's wild-type CDR3 AGPMKTSYDKVI | 0 |

| Variant | enrichment |
| --- | --- |
| […] (CDR3 as printed); A1R derived by comparing it with the table's wild-type CDR3 AGPMKTSYDKVI | 0 |
| […] (CDR3 as printed); Y8E derived by comparing it with the table's wild-type CDR3 AGPMKTSYDKVI | 52.6 |
| […] (CDR3 as printed); P3F derived by comparing it with the table's wild-type CDR3 AGPMKTSYDKVI | 0 |
| […] (CDR3 as printed); Y8S derived by comparing it with the table's wild-type CDR3 AGPMKTSYDKVI | 0 |
| […] (CDR3 as printed); T6P derived by comparing it with the table's wild-type CDR3 AGPMKTSYDKVI | 0 |
| […] (CDR3 as printed); P3C derived by comparing it with the table's wild-type CDR3 AGPMKTSYDKVI | 0 |
| […] (CDR3 as printed); A1E derived by comparing it with the table's wild-type CDR3 AGPMKTSYDKVI | 0 |
| […] (CDR3 as printed); K10E derived by comparing it with the table's wild-type CDR3 AGPMKTSYDKVI | 0.402 |
| […] (CDR3 as printed); V11M derived by comparing it with the table's wild-type CDR3 AGPMKTSYDKVI | 0 |
| […] (CDR3 as printed); V11L derived by comparing it with the table's wild-type CDR3 AGPMKTSYDKVI | 0 |
| […] (CDR3 as printed); K5V derived by comparing it with the table's wild-type CDR3 AGPMKTSYDKVI | 0 |
| […] (CDR3 as printed); K10D derived by comparing it with the table's wild-type CDR3 AGPMKTSYDKVI | 0 |
| […] (CDR3 as printed); M4W derived by comparing it with the table's wild-type CDR3 AGPMKTSYDKVI | 0 |
| […] (CDR3 as printed); V11H derived by comparing it with the table's wild-type CDR3 AGPMKTSYDKVI | 0 |
| […] (CDR3 as printed); A1P derived by comparing it with the table's wild-type CDR3 AGPMKTSYDKVI | 0 |
| […] (CDR3 as printed); D9K derived by comparing it with the table's wild-type CDR3 AGPMKTSYDKVI | 0 |
| […] (CDR3 as printed); S7D derived by comparing it with the table's wild-type CDR3 AGPMKTSYDKVI | 0 |
| […] (CDR3 as printed); G2Q derived by comparing it with the table's wild-type CDR3 AGPMKTSYDKVI | 0 |
| […] (CDR3 as printed); V11D derived by comparing it with the table's wild-type CDR3 AGPMKTSYDKVI | 0 |
| […] (CDR3 as printed); D9F derived by comparing it with the table's wild-type CDR3 AGPMKTSYDKVI | 0 |
| […] (CDR3 as printed); M4Q derived by comparing it with the table's wild-type CDR3 AGPMKTSYDKVI | 0 |
| […] (CDR3 as printed); K10S derived by comparing it with the table's wild-type CDR3 AGPMKTSYDKVI | 1.59 |
| […] (CDR3 as printed); G2D derived by comparing it with the table's wild-type CDR3 AGPMKTSYDKVI | 0 |

| Variant | enrichment |
| --- | --- |
| […] (CDR3 as printed); T6D derived by comparing it with the table's wild-type CDR3 AGPMKTSYDKVI | 0 |
| […] (CDR3 as printed); P3T derived by comparing it with the table's wild-type CDR3 AGPMKTSYDKVI | 0 |
| […] (CDR3 as printed); D9T derived by comparing it with the table's wild-type CDR3 AGPMKTSYDKVI | 0 |
| […] (CDR3 as printed); Y8I derived by comparing it with the table's wild-type CDR3 AGPMKTSYDKVI | 0 |
| […] (CDR3 as printed); K5T derived by comparing it with the table's wild-type CDR3 AGPMKTSYDKVI | 0 |
| […] (CDR3 as printed); I12T derived by comparing it with the table's wild-type CDR3 AGPMKTSYDKVI | 0 |
| […] (CDR3 as printed); G2T derived by comparing it with the table's wild-type CDR3 AGPMKTSYDKVI | 0 |
| […] (CDR3 as printed); K5P derived by comparing it with the table's wild-type CDR3 AGPMKTSYDKVI | 0 |
| […] (CDR3 as printed); Y8M derived by comparing it with the table's wild-type CDR3 AGPMKTSYDKVI | 0 |
| […] (CDR3 as printed); T6Q derived by comparing it with the table's wild-type CDR3 AGPMKTSYDKVI | 0 |
| […] (CDR3 as printed); G2H derived by comparing it with the table's wild-type CDR3 AGPMKTSYDKVI | 0 |
| […] (CDR3 as printed); I12P derived by comparing it with the table's wild-type CDR3 AGPMKTSYDKVI | 0 |
| […] (CDR3 as printed); A1G derived by comparing it with the table's wild-type CDR3 AGPMKTSYDKVI | 0 |
| […] (CDR3 as printed); K10F derived by comparing it with the table's wild-type CDR3 AGPMKTSYDKVI | 0 |
| […] (CDR3 as printed); M4H derived by comparing it with the table's wild-type CDR3 AGPMKTSYDKVI | 0 |
| […] (CDR3 as printed); A1Y derived by comparing it with the table's wild-type CDR3 AGPMKTSYDKVI | 0.533 |
| […] (CDR3 as printed); G2F derived by comparing it with the table's wild-type CDR3 AGPMKTSYDKVI | 0 |
| […] (CDR3 as printed); K5R derived by comparing it with the table's wild-type CDR3 AGPMKTSYDKVI | 0 |
| […] (CDR3 as printed); A1C derived by comparing it with the table's wild-type CDR3 AGPMKTSYDKVI | 0 |
| […] (CDR3 as printed); V11K derived by comparing it with the table's wild-type CDR3 AGPMKTSYDKVI | 0 |
| […] (CDR3 as printed); K5W derived by comparing it with the table's wild-type CDR3 AGPMKTSYDKVI | 0 |
| […] (CDR3 as printed); Y8T derived by comparing it with the table's wild-type CDR3 AGPMKTSYDKVI | 0 |
| […] (CDR3 as printed); V11S derived by comparing it with the table's wild-type CDR3 AGPMKTSYDKVI | 0 |
